Holding throughout (assay): cell-based or functional assay
For assay [1], the target named is human MC5R (melanocortin 5 receptor) (human) (UniProt P33032).
Assay [2] addresses human MC1R (melanocortin 1 receptor) (human) (UniProt Q01726).
Assay [3] concerns the target human wild type MC4R (melanocortin 4 receptor) expressed on HEK293/HEK293T cells (human) (UniProt P32245).
The target of assay [4] is human MC3R (melanocortin 3 receptor) (human) (UniProt P41968).
Chain of human MC3R (melanocortin 3 receptor) (human) (P41968 whole entry): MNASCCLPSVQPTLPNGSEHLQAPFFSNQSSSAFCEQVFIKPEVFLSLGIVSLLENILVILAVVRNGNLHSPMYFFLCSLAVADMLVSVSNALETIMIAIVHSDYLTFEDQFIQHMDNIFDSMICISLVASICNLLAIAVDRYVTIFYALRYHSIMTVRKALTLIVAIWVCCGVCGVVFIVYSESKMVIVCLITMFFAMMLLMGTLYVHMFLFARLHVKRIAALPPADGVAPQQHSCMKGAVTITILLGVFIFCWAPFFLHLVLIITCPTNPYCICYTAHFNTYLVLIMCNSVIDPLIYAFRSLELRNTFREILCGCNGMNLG

Chain of human wild type MC4R (melanocortin 4 receptor) expressed on HEK293/HEK293T cells (human) (P32245 whole entry): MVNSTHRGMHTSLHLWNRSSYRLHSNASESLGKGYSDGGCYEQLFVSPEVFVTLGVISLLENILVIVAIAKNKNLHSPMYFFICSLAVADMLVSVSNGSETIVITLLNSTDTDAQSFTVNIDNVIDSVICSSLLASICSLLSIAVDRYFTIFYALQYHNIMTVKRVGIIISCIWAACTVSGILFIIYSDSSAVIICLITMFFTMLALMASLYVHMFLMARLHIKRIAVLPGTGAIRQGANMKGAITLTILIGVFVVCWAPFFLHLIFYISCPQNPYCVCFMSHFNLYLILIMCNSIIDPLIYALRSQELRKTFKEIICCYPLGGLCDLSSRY
Chain of human MC1R (melanocortin 1 receptor) (human) (Q01726 whole entry): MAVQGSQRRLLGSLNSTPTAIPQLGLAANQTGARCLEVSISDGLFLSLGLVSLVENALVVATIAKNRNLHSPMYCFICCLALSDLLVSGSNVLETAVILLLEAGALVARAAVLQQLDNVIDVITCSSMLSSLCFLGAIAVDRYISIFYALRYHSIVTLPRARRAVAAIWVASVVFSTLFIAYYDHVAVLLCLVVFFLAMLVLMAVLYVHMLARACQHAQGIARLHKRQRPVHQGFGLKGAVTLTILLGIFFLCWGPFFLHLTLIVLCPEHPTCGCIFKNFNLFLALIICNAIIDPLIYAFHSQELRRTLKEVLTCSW
Chain of human MC5R (melanocortin 5 receptor) (human) (P33032 whole entry): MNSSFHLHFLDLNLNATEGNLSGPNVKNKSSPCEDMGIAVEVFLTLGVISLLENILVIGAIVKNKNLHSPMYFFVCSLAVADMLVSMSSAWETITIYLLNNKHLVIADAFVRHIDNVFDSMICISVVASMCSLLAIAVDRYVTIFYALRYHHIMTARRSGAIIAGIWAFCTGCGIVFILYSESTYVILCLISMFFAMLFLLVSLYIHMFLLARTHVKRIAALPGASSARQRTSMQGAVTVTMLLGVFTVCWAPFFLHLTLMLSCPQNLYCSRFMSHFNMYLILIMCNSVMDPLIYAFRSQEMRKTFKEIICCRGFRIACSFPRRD

In turn, setmelanotide (peptide) returned an in vitro cAMP potency EC50 (GloSensor) in assay [1] of 451 nM. In addition, the in vitro cAMP potency EC50 (GloSensor) in assay [2] was found to be 11.5 nM. Besides, in assay [3], the Gs ConfoSensor, 1 mM Ca^2+, EC50 stood at 0.6 nM; the Gs ConfoSensor, No Ca^2+, EC50 came out at 12 nM; the in vitro cAMP potency EC50 (GloSensor) is 2 nM; the β-arrestin recruitment, 1 mM Ca^2+, EC50 is 1.3 nM. The β-arrestin recruitment, No Ca^2+, EC50 in assay [3] turned out to be 18 nM. Also, the in vitro cAMP potency EC50 (GloSensor) in assay [4] was found to be 2.1 nM.
